# B1: FUS R521C tagged with mVenus-mCherry at the N terminus (VC-FUS_(R521C)) (natural protein)
# chain: MASNDYTQQATQSYGAYPTQPGQGYSQQSSQPYGQQSYSGYSQSTDTSGYGQSSYSSYGQSQNTGYGTQSTPQGYGSTGGYGSSQSSQSSYGQQSSYPGYGQQPAPSSTSGSYGSSSQSSSYGQPQSGSYSQQPSYGGQQQSYGQQQSYNPPQGYGQQNQYNSSSGGGGGGGGGGNYGQDQSSMSSGGGSGGGYGNQDQSGGGGSGGYGQQDRGGRGRGGSGGGGGGGGGGYNRSSGGYEPRGRGGGRGGRGGMGGSDRGGFNKFGGPRDQGSRHDSEQDNSDNNTIFVQGLGENVTIESVADYFKQIGIIKTNKKTGQPMINLYTDRETGKLKGEATVSFDDPPSAKAAIDWFDGKEFSGNPIKVSFATRRADFNRGGGNGRGGRGRGGPMGRGGYGGGGSGGGGRGGFPSGGGGGGGQQRAGDWKCPNPTCENMNFSWRNECNQCKAPKPDGPGGGPGGSHMGGNYGDDRRGGRGGYDRGGYRGRGGDRGGFRGGRGGGDRGGFGPGKMDSRGEHRQDCRERPY
# Assays:
# Assay in all cases: FRET or BRET
# [1] = biological target: mutant Huntingtin exon1 (mHttex1) with a polyglutamine stretch of Q71, fused to mVenus-mCherry (Q71-VC)
# [2] = biological target: mutant Huntingtin exon1 with 54 glutamines, fused to mVenus-mCherry (Q54-VC)
# [3] = biological target: mutant Huntingtin exon1 with 39 glutamines, fused to mVenus-mCherry (Q39-VC)
# [4] = biological target: wild-type FUS tagged with mVenus-mCherry at the C terminus (FUS-VC) (UniProt P35637)
# FRET or BRET = biological target: the molecule itself
molecule,measurement,setting,value
"mutant Huntingtin exon1 (mHttex1) with a polyglutamine stretch of Q71, fused to mVenus-mCherry (Q71-VC) (domain or fragment)",FRET/donor ratio in foci,[1],1.3 to 1.4
same,FRET/donor ratio of the final foci,[1],1.48
"mutant Huntingtin exon1 with 54 glutamines, fused to mVenus-mCherry (Q54-VC) (domain or fragment)",FRET/donor ratio of the final foci,[2],1.53
"mutant Huntingtin exon1 with 39 glutamines, fused to mVenus-mCherry (Q39-VC) (domain or fragment)",FRET/donor ratio of the final foci,[3],1.6
wild-type FUS tagged with mVenus-mCherry at the C terminus (FUS-VC) (from UniProt P35637 1-526) (natural protein),increase of FRET/donor ratio in foci over the dispersed state,[4],0.06
B1,increase of FRET/donor ratio in foci over the dispersed state,FRET or BRET,0.15
